Measurements: patent US20200010519A1, “NUCLEASE FUSIONS FOR ENHANCING GENOME EDITING BY HOMOLOGY-DIRECTED TRANSGENE INTEGRATION” (INSTITUT NATIONAL DE LA SANTE ET DE LA RECHERCHE …, priority 2017, published 2020)

Tested on: AAVS1 locus
Test: HDI of GFP cDNA at AAVS1 locus, FACS analysis, HEK293 cells
Format: cell-based, human

B1: HE2: Cas9 fused to HE2 (46-296 aa of CtIP; SEQ ID NO. 13), lacking the first 45 aa (protein, UniProt Q99708 46-296, looked up, fragment)
chain: KQERILDAQRLEEFFTKNQQLREQQKVLHETIKVLEDRLRAGLCDRCAVTEEHMRKKQQEFENIRQQNLKLITELMNERNTLQEENKKLSEQLQQKIENDQQHQAAELECEEDVIPDSPITAFSFSGVNRLRRKENPHVRYIEQTHTKLEHSVCANEMRKVSKSSTHPQHNPNENEILVADTYDQSQSPMAKAHGTSSYTPDKSSFNLATVVAETLGLGVQEESETQGPMSPLGDELYHCLEGNHKKQPFE
modifications: fused to Cas9
notes: Cas9 fused to HE2 (46-296 aa of CtIP; 13), lacking the first 45 aa
In the case of B1, the “HDI of GFP cDNA (homology-directed insertion of the GFP donor)” value is reported as “HE1 was the only fragment shown to significantly stimulate”.

B2: HE3: Cas9 fused to HE3 (166-296 aa of CtIP; SEQ ID NO. 14) containing the 3 CDK phosphorylation sites (protein, UniProt Q99708 166-296, looked up, fragment)
chain: TAFSFSGVNRLRRKENPHVRYIEQTHTKLEHSVCANEMRKVSKSSTHPQHNPNENEILVADTYDQSQSPMAKAHGTSSYTPDKSSFNLATVVAETLGLGVQEESETQGPMSPLGDELYHCLEGNHKKQPFE
modifications: fused to Cas9
notes: Cas9 fused to HE3 (166-296 aa of CtIP; 14) containing the 3 CDK phosphorylation sites
In the case of B2, the “HDI of GFP cDNA (homology-directed insertion of the GFP donor)” value is reported as “HE1 was the only fragment shown to significantly stimulate”.
